Each block holds one binder with its values, some of them ahead of it.
Key:
Settings in all cases: both partners purified
CtBP1(WT, FL) [1] = target: CtBP1(WT, FL) (human, UniProt Q13363 1-440); assay: ITC; VP-ITC, 25 °C, 50 mM HEPES (pH 7.2), 150 mM NaCl; CtBP in the cell (10 µM for RAI2 M1 or M2, 20 µM for the WT RAI2 constructs), RAI2 in the syringe (100 µM); mean of three independent measurements ± SD
CtBP1(K46W) [2] = target: CtBP1(K46W) (human, UniProt Q13363 1-440, K46W); assay: as above
CtBP1(WT, FL) [3] = target: CtBP1(WT, FL) (human, UniProt Q13363 1-440); assay: ITC; VP-ITC, 25 °C, 50 mM HEPES (pH 7.2), 150 mM NaCl; CtBP1 in the cell (20 µM for WT RAI2, 10 µM for M1 or M2), RAI2(303-362) variants 100 µM in the syringe; mean of three independent measurements
CtBP1(K46W) [4] = target: CtBP1(K46W) (human, UniProt Q13363 1-440, K46W); assay: ITC; VP-ITC, 25 °C, 50 mM HEPES (pH 7.2), 150 mM NaCl; CtBP in the cell (10 µM for M1 or M2, 20 µM for WT RAI2 constructs), RAI2 constructs in the syringe (100 µM); mean of three measurements
CtBP1(WT, FL) [5] = target: T1, CtBP1(WT, FL) (human, UniProt Q13363 1-440); assay: as above
CtBP1(WT, FL) [6] = target: T1, CtBP1(WT, FL); assay: SEC; analytical Superose 6 3.2/300 GL, 50 mM HEPES (pH 7.2), 150 mM NaCl; CtBP kept at 100 µM, RAI2 variants titrated at 1:0.1, 1:0.2, 1:0.5, 1:1 and 1:2
CtBP1(WT, FL) [7] = target: CtBP1(WT, FL) (human, UniProt Q13363 1-440); assay: ITC; VP-ITC, 25 °C, 50 mM HEPES (pH 7.2), 150 mM NaCl; CtBP in the cell (10 µM for RAI2 M1 or M2, 20 µM for the WT RAI2 constructs), RAI2 in the syringe (100 µM); mean of three independent measurements ± SD; remark: listed apart in the source

B1: RAI2(WT, 303-362) (domain or fragment)
chain: SRHTVIKMGSENEALDLSMKSVPWLKAGEVSPPIFQEDAALDLSVAAHRKSEPPPETLYD
notes: this construct came from the same vector (pETGB1a, TEV site) and may carry the same residues; source: E. coli BL21 DE3 LOBSTR, purified (HisTrap, TEV cleavage, Superdex 75); not shown: His6, N-terminal, cleaved
Kd (CtBP1(WT, FL) [1]): 1.1 µM | stoichiometry N (CtBP1(WT, FL) [1]): 0.42 | Kd (CtBP1(K46W) [2]): 4.5 µM | stoichiometry N (CtBP1(K46W) [2]): 0.26

B2: RAI2(WT, 303-362) (domain or fragment)
chain: SRHTVIKMGSENEALDLSMKSVPWLKAGEVSPPIFQEDAALDLSVAAHRKSEPPPETLYD
notes: Cloned in pETGB1a with a TEV site; also called Retinoic Acid-Induced 2; source: E. coli BL21 DE3 LOBSTR, purified (HisTrap, TEV cleavage, Superdex 75); not shown: His6, N-terminal, cleaved
Kd (CtBP1(WT, FL) [3]): 1.09 µM | stoichiometry N (CtBP1(WT, FL) [3]): 0.42

B3: RAI2(WT, 303–362) (domain or fragment, human, UniProt Q9Y5P3 303-362, looked up)
chain: SRHTVIKMGSENEALDLSMKSVPWLKAGEVSPPIFQEDAALDLSVAAHRKSEPPPETLYD
notes: 15N/13C-labelled for NMR; A residue of the TEV site (ENLYFQG) may remain at the N-terminus; PDB 8ARI holds the Δ11 variant of the same limits; source: E. coli BL21 DE3 LOBSTR, purified (HisTrap, TEV cleavage, Superdex 75); not shown: His6, N-terminal, cleaved
stoichiometry N (CtBP1(K46W) [4]): < 0.3 | fold change in binding stoichiometry against M1 and M2 (CtBP1(WT, FL) [5]): ~2 fold | fold increase in binding affinity against M1 and M2 (CtBP1(WT, FL) [5]): 5 fold | stoichiometry N (CtBP1(WT, FL) [5]): 0.5

B4: RAI2(M1, 303-362) (domain or fragment)
chain: SRHTVIKMGSENEALDAAMKSVPWLKAGEVSPPIFQEDAALDLSVAAHRKSEPPPETLYD
notes: source: E. coli BL21 DE3 LOBSTR, purified (HisTrap, TEV cleavage, Superdex 75); not shown: His6, N-terminal, cleaved
Kd (CtBP1(WT, FL) [3]): 5.53 µM | stoichiometry N (CtBP1(WT, FL) [3]): 0.785

B5: RAI2(M1, 303–362) (domain or fragment)
chain: SRHTVIKMGSENEALDAAMKSVPWLKAGEVSPPIFQEDAALDLSVAAHRKSEPPPETLYD
notes: 15N-labelled for NMR; PDB 8ARI holds the Δ11 variant of the same limits; source: E. coli BL21 DE3 LOBSTR, purified (HisTrap, TEV cleavage, Superdex 75); not shown: His6, N-terminal, cleaved
Kd (CtBP1(WT, FL) [5]): ~5 µM

B6: RAI2(M1, 303-362) (domain or fragment)
chain: SRHTVIKMGSENEALDAAMKSVPWLKAGEVSPPIFQEDAALDLSVAAHRKSEPPPETLYD
notes: as for B4
Kd (CtBP1(WT, FL) [1]): 5.5 µM | stoichiometry N (CtBP1(WT, FL) [1]): 0.78

B7: RAI2(M2, 303–362) (domain or fragment)
chain: SRHTVIKMGSENEALDLSMKSVPWLKAGEVSPPIFQEDAALDAAVAAHRKSEPPPETLYD
notes: as for B5
Kd (CtBP1(WT, FL) [5]): ~5 µM

B8: RAI2(M2, 303-362) (domain or fragment)
chain: SRHTVIKMGSENEALDLSMKSVPWLKAGEVSPPIFQEDAALDAAVAAHRKSEPPPETLYD
notes: as for B4
Kd (CtBP1(WT, FL) [3]): 3.87 µM | stoichiometry N (CtBP1(WT, FL) [3]): 0.836

B9: RAI2(M2, 303-362) (domain or fragment)
chain: SRHTVIKMGSENEALDLSMKSVPWLKAGEVSPPIFQEDAALDAAVAAHRKSEPPPETLYD
notes: as for B4
Kd (CtBP1(WT, FL) [1]): 3.9 µM | stoichiometry N (CtBP1(WT, FL) [1]): 0.84

B11: RAI2(WT, 303-465) (domain or fragment)
chain: SRHTVIKMGSENEALDLSMKSVPWLKAGEVSPPIFQEDAALDLSVAAHRKSEPPPETLYDSGASVDSSGHTVMEKLPSGMEISFAPATSHEAPAMMDSHISSSDAATEMLSQPNHPSGEVKAENNIEMVGESQAAKVIVSVEDAVPTIFCGKIKGLSGVSTKN
notes: this construct came from the same vector and may carry the same residues; source: E. coli BL21 DE3 LOBSTR, purified (HisTrap, TEV cleavage, Superdex 75); not shown: His6, N-terminal, cleaved
Kd (CtBP1(WT, FL) [1]): 1.5 µM | stoichiometry N (CtBP1(WT, FL) [1]): 0.32

Second part, the binder after the results:

Kd (CtBP1(WT, FL) [1]): 0.8 µM | stoichiometry N (CtBP1(WT, FL) [1]): 0.41 | Kd (CtBP1(K46W) [2]): 7.2 µM | stoichiometry N (CtBP1(K46W) [2]): 0.29
B10: RAI2(Δ11, 303-362) (domain or fragment, UniProt Q9Y5P3 303-362, looked up)
chain: SRHTVIKMGSENEALDLSMKSVPWLKAGALDLSVAAHRKSEPPPETLYD
notes: as for B4

binding result (CtBP1(WT, FL) [6]): binds
B12: RAI2(M1, 303–465) (domain or fragment)
chain: SRHTVIKMGSENEALDAAMKSVPWLKAGEVSPPIFQEDAALDLSVAAHRKSEPPPETLYDSGASVDSSGHTVMEKLPSGMEISFAPATSHEAPAMMDSHISSSDAATEMLSQPNHPSGEVKAENNIEMVGESQAAKVIVSVEDAVPTIFCGKIKGLSGVSTKN
notes: PDB 8ATI holds the M2 variant of the same limits; source: E. coli BL21 DE3 LOBSTR, purified (HisTrap, TEV cleavage, Superdex 75); not shown: His6, N-terminal, cleaved

binding result (CtBP1(WT, FL) [6]): binds
B13: RAI2(M2, 303–465) (domain or fragment)
chain: SRHTVIKMGSENEALDLSMKSVPWLKAGEVSPPIFQEDAALDAAVAAHRKSEPPPETLYDSGASVDSSGHTVMEKLPSGMEISFAPATSHEAPAMMDSHISSSDAATEMLSQPNHPSGEVKAENNIEMVGESQAAKVIVSVEDAVPTIFCGKIKGLSGVSTKN
notes: only residues 315-321 (EALDLSM) are seen in the crystal structure; source: E. coli BL21 DE3 LOBSTR, purified (HisTrap, TEV cleavage, Superdex 75); not shown: His6, N-terminal, cleaved

Kd (CtBP1(WT, FL) [7]): 1.5 µM | stoichiometry N (CtBP1(WT, FL) [7]): 0.34
B14: RAI2(WT, 303-530) (domain or fragment)
chain: SRHTVIKMGSENEALDLSMKSVPWLKAGEVSPPIFQEDAALDLSVAAHRKSEPPPETLYDSGASVDSSGHTVMEKLPSGMEISFAPATSHEAPAMMDSHISSSDAATEMLSQPNHPSGEVKAENNIEMVGESQAAKVIVSVEDAVPTIFCGKIKGLSGVSTKNFSFKREDSVLQGYDINSQGEESMGNAEPLRKPIKNRSIKLKKVNSQEIHMLPIKKQRLATFFPRK

binding result (CtBP1(WT, FL) [5]): binds
B15: RAI2(WT, 303–530) (domain or fragment)
chain: SRHTVIKMGSENEALDLSMKSVPWLKAGEVSPPIFQEDAALDLSVAAHRKSEPPPETLYDSGASVDSSGHTVMEKLPSGMEISFAPATSHEAPAMMDSHISSSDAATEMLSQPNHPSGEVKAENNIEMVGESQAAKVIVSVEDAVPTIFCGKIKGLSGVSTKNFSFKREDSVLQGYDINSQGEESMGNAEPLRKPIKNRSIKLKKVNSQEIHMLPIKKQRLATFFPRK
notes: as for B4

From article PMC11187106, “Master corepressor inactivation through multivalent SLiM-induced polymerization mediated by the oncogene suppressor RAI2” (Nature Communications, 2024)
